PMC7060279

Tests used:
integrin αvβ3 protein [1] = molecular target: integrin αvβ3 protein (UniProt P06756); test: SPR; Biacore T-200; TLR2, TLR4 and integrin αvβ3 immobilised on a CM5 chip by amine coupling; CCN1 as analyte at 25 µl per min, 25 °C, phosphate buffer with 350 mM NaCl, 0.5 mM CaCl2, 0.5 mM MgCl2, 10 µg per ml BSA; global fit to 1:1 Langmuir model, KD = kd/ka
integrin αvβ3 protein [2] = molecular target: integrin αvβ3 protein (UniProt P06756)

Chain of integrin αvβ3 protein (P06756 31-1048, chain 1 of 2): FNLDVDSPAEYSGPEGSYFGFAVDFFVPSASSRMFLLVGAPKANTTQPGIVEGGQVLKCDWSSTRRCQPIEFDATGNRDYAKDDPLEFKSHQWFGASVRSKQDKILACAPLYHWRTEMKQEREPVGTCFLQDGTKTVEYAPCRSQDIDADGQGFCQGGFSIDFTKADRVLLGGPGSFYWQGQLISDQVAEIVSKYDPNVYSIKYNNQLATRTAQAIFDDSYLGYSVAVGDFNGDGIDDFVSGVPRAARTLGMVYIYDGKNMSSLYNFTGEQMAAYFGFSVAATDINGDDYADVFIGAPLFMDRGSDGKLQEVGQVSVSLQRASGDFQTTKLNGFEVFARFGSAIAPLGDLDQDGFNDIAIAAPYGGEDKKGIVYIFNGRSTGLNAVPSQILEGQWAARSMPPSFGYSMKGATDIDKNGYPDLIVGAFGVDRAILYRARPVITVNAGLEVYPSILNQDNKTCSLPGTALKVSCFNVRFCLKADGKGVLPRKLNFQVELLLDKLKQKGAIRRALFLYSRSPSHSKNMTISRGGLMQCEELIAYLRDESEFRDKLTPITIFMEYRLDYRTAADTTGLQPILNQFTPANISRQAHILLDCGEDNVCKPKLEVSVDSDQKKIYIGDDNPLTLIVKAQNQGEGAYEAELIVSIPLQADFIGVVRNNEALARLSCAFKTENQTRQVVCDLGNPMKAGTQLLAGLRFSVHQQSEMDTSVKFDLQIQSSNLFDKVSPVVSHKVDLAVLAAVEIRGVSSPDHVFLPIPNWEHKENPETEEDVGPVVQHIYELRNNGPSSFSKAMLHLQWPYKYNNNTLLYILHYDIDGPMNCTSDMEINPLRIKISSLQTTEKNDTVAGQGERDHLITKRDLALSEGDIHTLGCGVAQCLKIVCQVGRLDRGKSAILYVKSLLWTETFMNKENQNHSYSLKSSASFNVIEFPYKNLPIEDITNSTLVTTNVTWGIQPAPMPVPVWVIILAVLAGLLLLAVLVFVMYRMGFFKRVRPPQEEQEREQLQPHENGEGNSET
Chain of integrin αvβ3 protein (P05106 27-718, chain 2 of 2, further chain): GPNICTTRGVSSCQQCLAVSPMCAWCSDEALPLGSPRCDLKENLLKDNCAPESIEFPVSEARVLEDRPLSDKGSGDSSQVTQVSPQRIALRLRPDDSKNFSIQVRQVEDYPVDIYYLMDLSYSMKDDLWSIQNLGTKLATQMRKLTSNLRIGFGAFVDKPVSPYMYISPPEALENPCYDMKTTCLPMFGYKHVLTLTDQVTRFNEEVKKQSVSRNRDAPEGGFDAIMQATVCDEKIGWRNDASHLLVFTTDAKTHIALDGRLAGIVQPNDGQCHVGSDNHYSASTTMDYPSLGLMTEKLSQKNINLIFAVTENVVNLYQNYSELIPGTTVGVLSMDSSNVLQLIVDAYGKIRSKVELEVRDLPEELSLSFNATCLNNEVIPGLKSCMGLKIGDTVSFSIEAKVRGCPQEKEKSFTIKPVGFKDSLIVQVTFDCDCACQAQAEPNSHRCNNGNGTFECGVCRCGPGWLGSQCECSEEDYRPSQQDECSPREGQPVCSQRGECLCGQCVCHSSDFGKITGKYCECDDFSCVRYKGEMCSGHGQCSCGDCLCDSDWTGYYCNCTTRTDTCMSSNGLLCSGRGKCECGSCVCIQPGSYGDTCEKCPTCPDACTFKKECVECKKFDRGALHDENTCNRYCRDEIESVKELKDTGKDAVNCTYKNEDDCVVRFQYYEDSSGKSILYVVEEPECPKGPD

B1: CCN1-WT (recombinant matricellular protein CCN1) (natural protein)
chain: TCPAACHCPLEAPKCAPGVGLVRDGCGCCKVCAKQLNEDCSKTQPCDHTKGLECNFGASSTALKGICRAQSEGRPCEYNSRIYQNGESFQPNCKHQCTCIDGAVGCIPLCPQELSLPNLGCPNPRLVKVSGQCCEEWVCDEDSIKDSLDDQDDLLGLDASEVELTRNNELIAIGKGSSLKRLPVFGTEPRVLFNPLHAHGQKCIVQTTSWSQCSKSCGTGISTRVTNDNPECRLVKETRICEVRPCGQPVYSSLKKGKKCSKTKKSPEPVRFTYAGCSSVKKYRPKYCGSCVDGRCCTPLQTRTVKMRFRCEDGEMFSKNVMMIQSCKCNYNCPHPNEASFRLYSLFNDIHKFRD
Integrin αvβ3 protein [1]
  Kd: 202 nM
Integrin αvβ3 protein [2]
  phagocytosis of S. aureus bioparticles by BMDMs pretreated with CCN1 (2 µg per ml); obliterated by cilengitide (1 µM); also enhanced in BM-PMNs and THP.1 macrophages: 5 fold
